In patent US20240293579A1, “Composition Comprising Trim31 and Rhbdf2 for Treatment of NAFLD/NASH” (CHONGQING MEIPULAN TECHNOLOGY CO., LTD, priority 2021, published 2024):

Biological target: T1, human RHBDF2, full-length, HA-tagged (RHBDF2-HA), Q6PJF5
T1 chain: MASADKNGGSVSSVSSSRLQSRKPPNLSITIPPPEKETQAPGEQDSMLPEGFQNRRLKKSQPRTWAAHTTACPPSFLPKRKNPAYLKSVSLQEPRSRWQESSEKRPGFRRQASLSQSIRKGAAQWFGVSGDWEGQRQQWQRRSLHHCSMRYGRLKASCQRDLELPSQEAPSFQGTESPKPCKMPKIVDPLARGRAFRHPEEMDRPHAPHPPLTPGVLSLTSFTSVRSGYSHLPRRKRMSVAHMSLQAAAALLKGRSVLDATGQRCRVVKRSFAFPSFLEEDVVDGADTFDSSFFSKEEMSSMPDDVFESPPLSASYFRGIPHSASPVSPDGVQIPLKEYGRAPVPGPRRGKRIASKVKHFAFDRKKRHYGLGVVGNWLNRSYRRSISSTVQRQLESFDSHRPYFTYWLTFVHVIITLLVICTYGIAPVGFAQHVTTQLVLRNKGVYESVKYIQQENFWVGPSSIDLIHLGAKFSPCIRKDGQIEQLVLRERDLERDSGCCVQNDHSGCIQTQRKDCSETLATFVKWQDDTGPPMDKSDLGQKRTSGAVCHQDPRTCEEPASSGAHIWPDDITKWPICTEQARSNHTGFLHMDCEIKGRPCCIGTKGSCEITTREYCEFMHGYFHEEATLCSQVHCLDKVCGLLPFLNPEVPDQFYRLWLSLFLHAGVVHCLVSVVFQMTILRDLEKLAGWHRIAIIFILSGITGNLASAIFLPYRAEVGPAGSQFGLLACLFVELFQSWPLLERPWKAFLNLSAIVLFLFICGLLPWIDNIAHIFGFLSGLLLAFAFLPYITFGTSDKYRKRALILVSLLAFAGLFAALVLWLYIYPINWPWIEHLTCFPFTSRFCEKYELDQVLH

B1: human TRIM31, full-length wild type, Flag-tagged (TRIM31-Flag WT) (protein)
chain: MASGQFVNKLQEEVICPICLDILQKPVTIDCGHNFCLKCITQIGETSCGFFKCPLCKTSVRKNAIRFNSLLRNLVEKIQALQASEVQSKRKEATCPRHQEMFHYFCEDDGKFLCFVCRESKDHKSHNVSLIEEAAQNYQGQIQEQIQVLQQKEKETVQVKAQGVHRVDVFTDQVEHEKQRILTEFELLHQVLEEEKNFLLSRIYWLGHEGTEAGKHYVASTEPQLNDLKKLVDSLKTKQNMPPRQLLEDIKVVLCRSEEFQFLNPTPVPLELEKKLSEAKSRHDSITGSLKKFKDQLQADRKKDENRFFKSMNKNDMKSWGLLQKNNHKMNKTSEPGSSSAGGRTTSGPPNHHSSAPSHSLFRASSAGKVTFPVCLLASYDEISGQGASSQDTKTFDVALSEELHAALSEWLTAIRAWFCEVPSS
**Q.** For B1, which “polyubiquitination of Rhbdf2 with single-lysine ubiquitin constructs (K48O, K63O, K33O, K6O, K29O, K27O)” value is on record?
**A.** The value was “Trim31-mediated increase in polyubiquitination of Rhbdf2 could be greatly observed in the presence of K48-loading vector, but not with other vectors”.
